Patent US20150351390A1, “COMPOSITIONS AND METHODS FOR AUXIN-ANALOG CONJUGATION” (PIONEER HI-BRED INTERNATIONAL, INC., priority 2012, published 2015)

B1: PpGH3-1: GH3 protein, accession CAD42870 (protein, listed as Physcomitrella patens)
chain: MASEVAKPVENGIHPKLEQSFDAPAATKPSNSELLKLHRDGVPFVMPSKRGIDTTAPDFDPQDFLDLLAEDVMFIQHEKLREILEVQADVEYLRRVGLNGRTDVESFRKCVPIVSYGDLEADIMRVVNGEKTPIFTVDPIVTLNLSSGTTAGKPKFIPSTTRAYEYFMFLQTFVTSIYRREFPGYKDGTSFTLAFAGKQIDTPSGIKAGAQSTNHFRGPMFRNRVRNANREYCVPDEVILSDDTTQSMYCHLLCALAQAPEIVKVYGTFAASIVSAVRALQKHWSEIVEDIRTGTLNAKITEPEMRTAVQQMLHPNPDLASRIEEECSKDNWEGILPRLFPNAHFVSCVISGSMLQYAPALKHFSGHLPTISLAYAACECSFIGFNPSMKCAPEDITYMLWPETAYYEFIPLDEDSNPEQDGDVVRTVEACDLEVGRQYELVVTNVIGLYRYRLGDVLTMKRFHKTAPVFEFVRRKNVILSVHTDKTDEKELQSVVNLATEALAGTGMELSDYTSTADVSTLPGRYVIFWEMVDSSDLDYDVLQHCANTLDANFNSDYRRWRSGHQIGPLELRIVKEGTFNRVMDSAVARGASPSQYKPPRCVNNPHTRQILDDGLVASFHSTITPNPAPIALTGS
B2: AtGH3-7: GH3 protein, accession AAC00604 (protein, listed as Arabidopsis thaliana)
chain: MSLTSDLSEKSSDKMKVLEDLTSNVTQIQDNVLEEILTLNANTNYLQKFFLGSFDKESFKKNVPVVTYEDVKPYIERVVNGEPSNVISARPITGFVLSTGTSGGAQKMMPWNEKYLDNLTFMYDLRMHIISNNVKDVEKGKAMMFYFTKLESITPSGLPARVASSSYLKSNYFKNRPSNWYYSYTSPDEVTLCPDNKQNLYCHLLCGLVQRNEVTRMGSIFASVMVRAIKFLEDSWEELCSNIRSGQLSEWITDIGCRDSVSLVLGGPHPEAADTIEQICNQKCWKGIITRLWPKAKYIETIVTGSMVQYVPTLNYYSNNMLPLISTIYASSETQFGLNLNPMCKPEDVSYTFMPNVSYFEFIPVDGDKNDVVDLADVKLGCCYEAVVTNFSGLYRIRVGDILVVTGFHNKAPQFRFIRRDNVVLSIDLDKTNEDDLFKAVNNAKLTLDSSHLMLIDFTSYADISTIPGHYVVYWEVKNKNEDKKSKKHIELKEETFSECCLLMEDSLDSVYKICRFKEESVGPLEIKVVRQGTFDSLMDYFISQGASIGQYKTPRCIKSGKALEVLEENVVATFFST
B3: AIGH3-14: GH3 protein, accession EFH47823 (protein, listed as Arabidopsis lyrata)
chain: MLPKFDPTDQKACLSLLEDVTTNVKQIQDSVLEAILSRNARTEYLSGFLNGQVDKQSFKKNLPVVTYEDIRPYIDRIANGEPSDLICDRPISVLLTSSGTSGGVPKLIPLTTDELEQRISFASLYRPLLYKYVEGIRERKSFMLYFVTRESETASGILVRTMITCVLKSLKPSNSFIWDQTQISPHGISTCSDTTQSMYCQLLCGLLQRDNVGRLGAPFASSFLKIIKFLEDHWPEFCSNIRTGRLSDWITDPQCVSGIGKFLTAPDPELASLIEQECSQTSWEAIVKRLWPKAKCIEAIVTGTMAQYIPLLEFYSGGLPVISTFYGSSECFIGLNLNPLSKPSDVSYTIIPCMAYFEFLEVGKDYQETGHDPAEKPVVVDLVDVKIGHDYEPVVTTFAGLYRYRLGDVLRVTGFYNNAPQFHFVGRQKVVLSIDMDKTYEEDLLKAVTNAKLLLEPHDLMLMDFTSRVDSSSFPGHYVLYWELGSKVKDAKLELDPNVLEECCFTIEESLDAVYRKGRKNDKNIGPLEIKVVKSGAFEELMNLFLSRGSSVSQYKTPRSVTNEEAVKILESNVVSEFLSRKTPSWELHELYSNR
B4: AtGH3-12: GH3 protein, accession Q9LYU4 (protein, listed as Arabidopsis thaliana)
chain: MKPIFDINETFEKQLKDLTSNVKSIQDNLLEEIITPNTKTEYLQRFLIDRFDKELFKKNVPIVSYEDIKPYLDRVVNGESSDVISARTITGFLLSSGTSGGAQKMMPWNNKYLDNLTFIYDLRMQVITKHVKGVEEGKGMMFLFTKQESMTPSGLPARVATSSYFKSDYFKNRPSNWYYSYTSPDEVILCPNNTESLYCHLLCGLVQRDEVVRTGSIFASVMVRAIEVLKNSWEELCSNIRSGHLSNWVTDLGCQNSVSLVLGGPRPELADTIEEICNQNSWKGIVKRLWPNTKYIETVVTGSMGQYVPMLNYYCNDLPLVSTTYGSSETTFGINLDPLCKPEDVSYTFMPNMSYFEFIPMDGGDKNDVVDLEDVKLGCTYEPVVTNFAGLYRMRVGDIVLVTGFYNNAPQFKFVRRENVVLSIDSDKTNEEDLFKAVSQAKLVLESSGLDLKDFTSYADTSTFPGHYVVYLEVDTKEGEEKETAQFELDEEALSTCCLVMEESLDNVYKRCRFKDGSIGPLEIRVVRQGTFDSLMDFFISQGASTGQYKTPRCIKSGKALQVLETCVVAKFFSI
B5: AtGH3-19: GH3 protein, accession AAG60122 (protein, listed as Arabidopsis thaliana)
chain: MSLSVELKDLEVLTTNAKQIQDDVLKEILTLNANTEYLKRFLDGSSDKELFKKNVPVVSYNDVKPYIERVANGEPSDVISGGTITRFVQSTGTSGGIHKIFPVNDKYIENLGYLLAVSSLITSNDKVDEKGKKMAFLYNRLESKTPSGLALSSSFTSYFMSDYFKNRSSKCNSEYTSPDQVILCPDNNQSVYCHLLCGLSQREKVVGVSATFAHALIKAINALQIYWKELSSNIRSGHVSEWITDLDCKNAVSAILGGPDPELADVIEQECSHKSWEGIITRLWPKAKFIECIVTGQMAQYIPTLDFYSNKLPIVSMVYGSSESIFGVNVDPLSKPQDVSYTFLPNISYFEFLPIDHEEDMNTIVDLVGVKLGCYYETVVTSYFGLHRYLIGDILQVTGFYNNTPQFRFVRRKNIVLSVNSEATTEQDILKGLASATLVLESSNSMLTGFTCYADISSFPGHYVFYWELKAKDVDDVVELDENVLEECCYALEESFDALYKRLRSKEGSIGALEIKVVQQGTFDSLMEYFISKGGSVAQYKTPMCINSSETLAVLEDKVIARFYSQKSPPLNL
B6: ZmACF88044: GH3 protein, accession ACF88044 (protein)
chain: MATYEDLQPYIRRIADGDRSPILSGHPVSEFLTSSGTSAGERKLMPTIEDELNRRQLLYSLQMPVMNLYVPGMDKGKALHFLFVKSETKTPGGLAARPVLTSYYKSNHFKNRPFDAYNNYTSPTAAILCADAFQSMYAQMLCGLCQRQDVLRVGAVFASGLLRAIRFLQLNWEQLAEDIEAGSLTPRVTDPSVREAVAGILRADPELAALVRSECSKGDWAGIITRIWPSTKYLDVIVTGAMAQYIPTLKYYSGGLPMACTMYASSECYFGLNLRPMCDPSEVSYTLMPNMCYFEFLPMDSAAASGGDASQLVDLARVEVGREYELVITTYAGLNRYRVGDVLQVTGFHNSAPQFRFVRRKNVLLSIESDKTDEAELQRAVERASALLRPHGAAVVEYTSQAYTKSIPGHYVIYWELLAKGPAGGAAVGEGTLERCCLEMEEALNTVYRQSRVADGSIGPLEIRVVRPGTFEELMDYAISRGASINQYKVPRCVTFPPIIELLDSRVVSSHFSPALPHWTPGQRSDSD
modifications: Zea mays

Assay: LC-MS assay of GH3 conjugation of 2,4-D with Asp or Glu
Type: biochemical
Settings: conjugation of 2,4-D with Asp by recombinant GH3 protein; 2,4-D-Asp product by LC-MS; 5 mM 2,4-D substrate
Description: (§1) To detect and monitor the formation of acyl conjugates with 2,4-D or dicamba, a sensitive LC-MS method was developed using the respective amino acid conjugate standards. […] The reaction was performed at 30° C., 105 rpm, for 3 hours in buffer containing 20 mM Tris-HCl (pH 8.0), 5 mM MgCl2, 5 mM auxin (IAA, 2,4-D or dicamba), 5 mM ATP, 5 mM Asp or Glu, 1 mM DTT and 44 to 164 μg/mL purified GH3 protein in 100 μL reaction. After 3 hours of reaction, 400 μL 100% MeOH was added to the reaction mixture for protein precipitation. The supernatant was diluted 20× in water and then analyzed by LC-MS (AB Sciex 4000 QTrap coupled with Shimadzu Nexera UHPLC) using a Phenomenex Luna 3 μm Phenyl-Hexyl (00B-4256-Y0) column. The concentration of the conjugates was calculated based on the standards. Kinetic parameters were estimated by fitting initial velocity values to the Michaelis-Menten equation.
(§2) The GH3 superfamily conjugase activity analysis of IAA, 2,4-D or dicamba with Asp or Glu was done using LC-MS to analyze the final conjugate products as described in Example 1. Protein sequences of GH3 homologs (Table 3) were obtained from public databases (NCBI, http://www.ncbi.nlm.nih.gov/) by Blast analysis of AtGH3.17 protein sequence (accession # Q9FZ87). Coding sequences were designed for optimal expression in E. coli based on the protein sequences and synthesized. Synthesized coding sequences along with N-term his-tag coding sequences were cloned into a pET24a-based E. coli expression vector. The E. coli expression vectors were transformed into OverExpress C41(DE3) cells (Lucigen) for protein expression. Recombinant E. coli strains were inoculated into 5 ml LB media supplemented with 40 mg/L kanamycin and cultured overnight at 37° C. The overnight culture (0.5 mL) was inoculated into 50 mL LB medium plus 40 mg/L kanamycin and grown at 30° C. until OD600 reached 0.6. The cultures were induced with 0.2 mM IPTG at 16° C., 230 rpm overnight. Cells were harvested by centrifugation at 7,000 rpm for 10 mins. The cell pellet from 50 mL of cell culture was frozen and thawed twice and then lysed in 800 μL lysis buffer A (150 mM NaCl, 50 mM Tris-HCl pH 8.0, 5 mM MgCl2, 10% glycerol) plus 20 mM imidazole, 1 mM DTT, 0.2 mg/ml lysozyme, 1/200 protease inhibitor cocktail (EMD set3, EDTA free) and 1/2000 endonuclease. Lysate was then centrifuged at 13,000 rpm for 30 min at 4° C. Supernatant was loaded onto 200 μL Ni-NTA columns pre-equilibrated with buffer A with 20 mM imidazole at 4° C. Each column was then washed with (1) 2×800 μL of buffer A with 10 mM imidazole, (2) 2×800 μL of buffer A with 20 mM imidazole and (3) 2×200 μL of buffer A with 50 mM imidazole. Protein was eluted with 200 μL of buffer A with 250 mM imidazole. The concentration was measured by Bradford assay. Purified protein was used in conjugation reaction assays as described in example 1.

Molecule | kcat (hrs−1) 2,4-D-Asp [h⁻¹]
B1 | 0.078
B2 | 0.000
B3 | 0.140
B4 | 0.002
B5 | 0.014
B6 | 0.000

Same assay, conditions: conjugation of 2,4-D with Glu by recombinant GH3 protein; 2,4-D-Glu product by LC-MS; 5 mM 2,4-D substrate

Molecule | kcat (hrs−1) 2,4-D-Glu [h⁻¹]
B1 | 0.122
B2 | 0.000
B3 | 0.322
B4 | 0.026
B5 | 0.048
B6 | 0.033

Same assay, conditions: result in words

Molecule | 2,4-D conjugation activity with Asp or Glu
B1 | 2,4-D conjugases
B6 | 2,4-D conjugases

Assay: LC-MS assay of GH3 conjugation of IAA with Asp or Glu
Type: biochemical
Settings: conjugation of IAA with Asp by recombinant GH3 protein; IAA-Asp product by LC-MS
Description: as §1, §2

Molecule | kcat (hrs−1) IAA-Asp [h⁻¹]
B1 | 0.000
B2 | 0.000
B3 | 0.000
B4 | 0.000
B5 | 0.000
B6 | 0.000

Same assay, conditions: conjugation of IAA with Glu by recombinant GH3 protein; IAA-Glu product by LC-MS

Molecule | kcat (hrs−1) IAA-Glu [h⁻¹]
B1 | 0.000
B2 | 5.361
B3 | 1.756
B4 | 10.015
B5 | 3.177
B6 | 0.000

Same assay, conditions: result in words

Molecule | IAA conjugation activity with Asp or Glu | Conjugation of Glu to IAA
B1 | IAA-inactive | –
B2 | – | can also conjugate Glu to IAA
B3 | – | can also conjugate Glu to IAA
B4 | – | can also conjugate Glu to IAA
B5 | – | can also conjugate Glu to IAA
B6 | IAA-inactive | –
